Measurements from FireProtDB (doi:10.1126/science.aai7825).

Details: Escherichia coli (strain K12); pH 7.5; Thermal; Intensity; HEPES 20mM; transition: 2; whole UniProt chain shown

B1: Nucleoid-associated protein YejK wild type, P33920 (protein)
chain: MSLDINQIALHQLIKRDEQNLELVLRDSLLEPTETVVEMVAELHRVYSAKNKAYGLFSEESELAQTLRLQRQGEEDFLAFSRAATGRLRDELAKYPFADGGFVLFCHYRYLAVEYLLVAVLSNLSSMRVNENLDINPTHYLDINHADIVARIDLTEWETNPESTRYLTFLKGRVGRKVADFFMDFLGASEGLNAKAQNRGLLQAVDDFTAEAQLDKAERQNVRQQVYSYCNEQLQAGEEIELKSLSKELAGVSEVSFTEFAAEKGYELEESFPADRSTLRQLTKFAGSGGGLTINFDAMLLGERIFWDPATDTLTIKGTPPNLRDQLQRRTSGGN
For B1, which Tm is on record?
The Tm was 42.6 °C.

B2: Uncharacterized Nudix hydrolase YfcD wild type, P65556 (protein)
chain: MEQRRLASTEWVDIVNEENEVIAQASREQMRAQCLRHRATYIVVHDGMGKILVQRRTETKDFLPGMLDATAGGVVQADEQLLESARREAEEELGIAGVPFAEHGQFYFEDKNCRVWGALFSCVSHGPFALQEDEVSEVCWLTPEEITARCDEFTPDSLKALALWMKRNAKNEAVETETAE
With B2 as the protein, how does the Tm read?
The Tm was 42.1 °C.

B3: Outer membrane porin C wild type, P06996 (protein)
chain: MKVKVLSLLVPALLVAGAANAAEVYNKDGNKLDLYGKVDGLHYFSDNKDVDGDQTYMRLGFKGETQVTDQLTGYGQWEYQIQGNSAENENNSWTRVAFAGLKFQDVGSFDYGRNYGVVYDVTSWTDVLPEFGGDTYGSDNFMQQRGNGFATYRNTDFFGLVDGLNFAVQYQGKNGNPSGEGFTSGVTNNGRDALRQNGDGVGGSITYDYEGFGIGGAISSSKRTDAQNTAAYIGNGDRAETYTGGLKYDANNIYLAAQYTQTYNATRVGSLGWANKAQNFEAVAQYQFDFGLRPSLAYLQSKGKNLGRGYDDEDILKYVDVGATYYFNKNMSTYVDYKINLLDDNQFTRDAGINTDNIVALGLVYQF
Which Tm does the source give for B3 here?
The Tm was 43.5 °C.

B4: Probable L,D-transpeptidase YnhG wild type, P76193 (protein)
chain: MKRASLLTLTLIGAFSAIQAAWAVDYPLPPTGSRLVGQNQTYTVQEGDKNLQAIARRFDTAAMLILEANNTIAPVPKPGTTITIPSQLLLPDAPRQGIIVNLAELRLYYYPPGENIVQVYPIGIGLQGLETPVMETRVGQKIPNPTWTPTAGIRQRSLERGIKLPPVVPAGPNNPLGRYALRLAHGNGEYLIHGTSAPDSVGLRVSSGCIRMNAPDIKALFSSVRTGTPVKVINEPVKYSVEPNGMRYVEVHRPLSAEEQQNVQTMPYTLPAGFTQFKDNKAVDQKLVDKALYRRAGYPVSVSSGATPAASNAPSVESAQNGEPEQGNMLRVTQ
Which Tm does the source give for B4 here?
The Tm was 44.1 °C.

B5: Phospho-2-dehydro-3-deoxyheptonate aldolase, Phe-sensitive wild type, P0AB91 (protein)
chain: MNYQNDDLRIKEIKELLPPVALLEKFPATENAANTVAHARKAIHKILKGNDDRLLVVIGPCSIHDPVAAKEYATRLLALREELKDELEIVMRVYFEKPRTTVGWKGLINDPHMDNSFQINDGLRIARKLLLDINDSGLPAAGEFLDMITPQYLADLMSWGAIGARTTESQVHRELASGLSCPVGFKNGTDGTIKVAIDAINAAGAPHCFLSVTKWGHSAIVNTSGNGDCHIILRGGKEPNYSAKHVAEVKEGLNKAGLPAQVMIDFSHANSSKQFKKQMDVCADVCQQIAGGEKAIIGVMVESHLVEGNQSLESGEPLAYGKSITDACIGWEDTDALLRQLANAVKARRG
Which Tm does the source give for B5 here?
The Tm was 41.7 °C.

B6: Imidazole glycerol phosphate synthase subunit HisH wild type, P60595 (protein)
chain: MNVVILDTGCANLNSVKSAIARHGYEPKVSRDPDVVLLADKLFLPGVGTAQAAMDQVRERELFDLIKACTQPVLGICLGMQLLGRRSEESNGVDLLGIIDEDVPKMTDFGLPLPHMGWNRVYPQAGNRLFQGIEDGAYFYFVHSYAMPVNPWTIAQCNYGEPFTAAVQKDNFYGVQFHPERSGAAGAKLLKNFLEM
With B6 as the protein, how does the Tm read?
Its Tm is 42.4 °C.

B7: Selenide, water dikinase wild type, P16456 (protein)
chain: MSENSIRLTQYSHGAGCGCKISPKVLETILHSEQAKFVDPNLLVGNETRDDAAVYDLGNGTSVISTTDFFMPIVDNPFDFGRIAATNAISDIFAMGGKPIMAIAILGWPINKLSPEIAREVTEGGRYACRQAGIALAGGHSIDAPEPIFGLAVTGIVPTERVKKNSTAQAGCKLFLTKPLGIGVLTTAEKKSLLKPEHQGLATEVMCRMNIAGASFANIEGVKAMTDVTGFGLLGHLSEMCQGAGVQARVDYEAIPKLPGVEEYIKLGAVPGGTERNFASYGHLMGEMPREVRDLLCDPQTSGGLLLAVMPEAENEVKATAAEFGIELTAIGELVPARGGRAMVEIR
For B7, which Tm is on record?
Its Tm is 41.7 °C.

B8: 5-amino-6-(5-phospho-D-ribitylamino)uracil phosphatase YbjI wild type, P75809 (protein)
chain: MSIKLIAVDMDGTFLSDQKTYNRERFMAQYQQMKAQGIRFVVASGNQYYQLISFFPEIANEIAFVAENGGWVVSEGKDVFNGELSKDAFATVVEHLLTRPEVEIIACGKNSAYTLKKYDDAMKTVAEMYYHRLEYVDNFDNLEDIFFKFGLNLSDELIPQVQKALHEAIGDIMVSVHTGNGSIDLIIPGVHKANGLRQLQKLWGIDDSEVVVFGDGGNDIEMLRQAGFSFAMENAGSAVVAAAKYRAGSNNREGVLDVIDKVLKHEAPFDQ
Which Tm does the source give for B8 here?
Its Tm is 41.2 °C.

B9: FKBP-type peptidyl-prolyl cis-trans isomerase FkpA wild type, P45523 (protein)
chain: MKSLFKVTLLATTMAVALHAPITFAAEAAKPATAADSKAAFKNDDQKSAYALGASLGRYMENSLKEQEKLGIKLDKDQLIAGVQDAFADKSKLSDQEIEQTLQAFEARVKSSAQAKMEKDAADNEAKGKEYREKFAKEKGVKTSSTGLVYQVVEAGKGEAPKDSDTVVVNYKGTLIDGKEFDNSYTRGEPLSFRLDGVIPGWTEGLKNIKKGGKIKLVIPPELAYGKAGVPGIPPNSTLVFDVELLDVKPAPKADAKPEADAKAADSAKK
Which Tm does the source give for B9 here?
Its Tm is 41.8 °C.

B10: Exodeoxyribonuclease III wild type, P09030 (protein)
chain: MKFVSFNINGLRARPHQLEAIVEKHQPDVIGLQETKVHDDMFPLEEVAKLGYNVFYHGQKGHYGVALLTKETPIAVRRGFPGDDEEAQRRIIMAEIPSLLGNVTVINGYFPQGESRDHPIKFPAKAQFYQNLQNYLETELKRDNPVLIMGDMNISPTDLDIGIGEENRKRWLRTGKCSFLPEEREWMDRLMSWGLVDTFRHANPQTADRFSWFDYRSKGFDDNRGLRIDLLLASQPLAECCVETGIDYEIRSMEKPSDHAPVWATFRR
With B10 as the protein, how does the Tm read?
The Tm was 42.6 °C.

B11: Fructose-1,6-bisphosphatase class 1 wild type, P0A993 (protein)
chain: MKTLGEFIVEKQHEFSHATGELTALLSAIKLGAKIIHRDINKAGLVDILGASGAENVQGEVQQKLDLFANEKLKAALKARDIVAGIASEEEDEIVVFEGCEHAKYVVLMDPLDGSSNIDVNVSVGTIFSIYRRVTPVGTPVTEEDFLQPGNKQVAAGYVVYGSSTMLVYTTGCGVHAFTYDPSLGVFCLCQERMRFPEKGKTYSINEGNYIKFPNGVKKYIKFCQEEDKSTNRPYTSRYIGSLVADFHRNLLKGGIYLYPSTASHPDGKLRLLYECNPMAFLAEQAGGKASDGKERILDIIPETLHQRRSFFVGNDHMVEDVERFIREFPDA
For B11, which Tm is on record?
The Tm was 42.4 °C.

B12: dTDP-glucose 4,6-dehydratase 2 wild type, P27830 (protein)
chain: MRKILITGGAGFIGSALVRYIINETSDAVVVVDKLTYAGNLMSLAPVAQSERFAFEKVDICDRAELARVFTEHQPDCVMHLAAESHVDRSIDGPAAFIETNIVGTYTLLEAARAYWNALTEDKKSAFRFHHISTDEVYGDLHSTDDFFTETTPYAPSSPYSASKASSDHLVRAWLRTYGLPTLITNCSNNYGPYHFPEKLIPLMILNALAGKSLPVYGNGQQIRDWLYVEDHARALYCVATTGKVGETYNIGGHNERKNLDVVETICELLEELAPNKPHGVAHYRDLITFVADRPGHDLRYAIDASKIARELGWLPQETFESGMRKTVQWYLANESWWKQVQDGSYQGERLGLKG
For B12, which Tm is on record?
Its Tm is 42.3 °C.

B13: Glutathione S-transferase YfcF wild type, P77544 (protein)
chain: MSKPAITLWSDAHFFSPYVLSAWVALQEKGLSFHIKTIDLDSGEHLQPTWQGYGQTRRVPLLQIDDFELSESSAIAEYLEDRFAPPTWERIYPLDLENRARARQIQAWLRSDLMPIREERPTDVVFAGAKKAPLTAEGKASAEKLFAMAEHLLVLGQPNLFGEWCIADTDLALMINRLVLHGDEVPERLVDYATFQWQRASVQRFIALSAKQSG
For B13, which Tm is on record?
The Tm was 41.6 °C.

B14: Probable ketoamine kinase YniA wild type, P77739 (protein)
chain: MWQAISRLLSEQLGEGEIELRNELPGGEVHAAWHLRYAGHDFFVKCDERELLPGFTAEADQLELLSRSKTVTVPKVWAVGADRDYSFLVMDYLPPRPLDAHSAFILGQQIARLHQWSDQPQFGLDFDNALSTTPQPNTWQRRWSTFFAEQRIGWQLELAAEKGIAFGNIDAIVEHIQQRLASHQPQPSLLHGDLWSGNCALGPDGPYIFDPACYWGDRECDLAMLPLHTEQPPQIYDGYQSVSPLPADFLERQPVYQLYTLLNRARLFGGQHLVIAQQSLDRLLAA
Which Tm does the source give for B14 here?
The Tm was 40.4 °C.

B15: Ribosome-binding ATPase YchF wild type, P0ABU2 (protein)
chain: MGFKCGIVGLPNVGKSTLFNALTKAGIEAANFPFCTIEPNTGVVPMPDPRLDQLAEIVKPQRTLPTTMEFVDIAGLVKGASKGEGLGNQFLTNIRETEAIGHVVRCFENDNIIHVSGKVNPADDIEVINTELALADLDTCERAIHRVQKKAKGGDKDAKAELAVLEKCLPQLENAGMLRALDLSAEEKAAIRYLSFLTLKPTMYIANVNEDGFENNPYLDQVREIAAKEGSVVVPVCAAVEADIAELDDEERDEFMQELGLEEPGLNRVIRAGYKLLNLQTYFTAGVKEVRAWTIPVGATAPQAAGKIHTDFEKGFIRAQTISFEDFITYKGEQGAKEAGKMRAEGKDYIVKDGDVMNFLFNV
Which Tm does the source give for B15 here?
Its Tm is 41.3 °C.

B16: Elongation factor P-like protein wild type, P0A6N8 (protein)
chain: MPRANEIKKGMVLNYNGKLLLVKDIDIQSPTARGAATLYKMRFSDVRTGLKVEERFKGDDIVDTVTLTRRYVDFSYVDGNEYVFMDKEDYTPYTFTKDQIEEELLFMPEGGMPDMQVLTWDGQLLALELPQTVDLEIVETAPGIKGASASARNKPATLSTGLVIQVPEYLSPGEKIRIHIEERRYMGRAD
With B16 as the protein, how does the Tm read?
Its Tm is 43.5 °C.
